In PMC3427469:

Tests used:
[1] = target: GST-WAVE2 (UniProt Q9Y6W5); assay: pull-down
[2] = target: FLAG-WAVE2 (UniProt Q9Y6W5); assay: co-IP
Sequence of FLAG-WAVE2 (Q9Y6W5 whole entry): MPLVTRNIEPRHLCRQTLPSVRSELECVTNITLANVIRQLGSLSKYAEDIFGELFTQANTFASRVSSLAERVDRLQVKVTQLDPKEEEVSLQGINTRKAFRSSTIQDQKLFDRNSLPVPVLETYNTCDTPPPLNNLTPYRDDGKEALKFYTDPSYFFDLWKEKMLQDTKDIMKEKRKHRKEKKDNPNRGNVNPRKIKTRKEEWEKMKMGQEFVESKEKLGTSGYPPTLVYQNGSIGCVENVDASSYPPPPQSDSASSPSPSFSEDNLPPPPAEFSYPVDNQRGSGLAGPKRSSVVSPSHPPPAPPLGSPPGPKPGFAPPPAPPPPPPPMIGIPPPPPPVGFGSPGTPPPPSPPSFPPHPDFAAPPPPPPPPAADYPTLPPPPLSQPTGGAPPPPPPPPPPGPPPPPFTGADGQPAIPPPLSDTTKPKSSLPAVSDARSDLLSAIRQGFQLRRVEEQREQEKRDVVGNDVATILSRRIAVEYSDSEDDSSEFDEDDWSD

Sequence of GST-WAVE2 (Q9Y6W5 whole entry): as above

KD in the presence of Exo70 [1] [nM] | Kd [1] [nM] | fold increase of Arp2/3 bound in the presence of Exo70 against BSA [1] [fold] | Arp3 co-precipitated after Exo70 siRNA, percent of control siRNA-treated cells [2] [%] | Substance
210 | 470 | 3.5 |  | Arp2/3 complex (purified) (from UniProt P61158 1-418)
 |  |  | 44 | Arp2/3 complex, endogenous in MDA-MB-231 cells (from UniProt P61158 1-418)
